According to the supplement of paper PMC11780869:

Tested on: Bacillus subtilis
Test: cleaved RNA product abundance (RNA/gDNA barcode ratio) relative to median wild-type variant (ratio to wild type); higher = more accumulation of the downstream cleavage product
Conditions: cleavage site: cggR-gapA (positions -7 to +36 mutated)
Procedure, shortened: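 Cleaved product abundance was measured with barcoded reporter mRNAs (truncated aprE or tetM) carrying mutagenized RNase Y cleavage-site windows in the B. subtilis chromosome. Cultures in LB at 37°C grew from OD600 0.0003 to 0.3. Gel-selected cleaved RNA was reverse transcribed and barcode-sequenced with genomic DNA barcodes, and the RNA:gDNA barcode ratio per construct was scaled to the median construct bearing the unmutated site.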

[1] = experiment (reporter, strain, medium): exp 4a: truncated aprE reporter, strain BJT201 with 2% xylose (RNase J1 expressed)
[2] = experiment (reporter, strain, medium): exp 2b: truncated aprE reporter, strain BJT200
[3] = experiment (reporter, strain, medium): exp 6: tetM reporter, strain 168

Row | Sequence | cleaved RNA product abundance [1] | cleaved RNA product abundance [2] | cleaved RNA product abundance [3]
1 | ACAGACGAAGGAGCCGCAAAGAAGTTATTAAGGGATGAATTATCCCTCTATATAAATATCTCTCACTTATTTAAA | 0.3 | – | –
2 | ACAGACGAAGGAGCCGCAAAGAAGTTATTAAGGGATGAATTATCCCTGAATATAAATATCTCTCACTTATTTAAA | – | 0.396 | –
3 | ACAGACGAAGGAGCCGCAAAGAAGTTATTAAGGGATGAATTATCCCTTAATATAAATATCTCTCACTTATTTAAA | 0.438 | – | –
4 | ACAGACGAAGGAGCCGCAAAGAAGTTATTAAGGGATGAATTATCCTTCAATATAAATATCTCTCACTTATTTAAA | 0.284 | 0.232 | –
5 | ACAGACGAAGGAGCCGCAAAGAAGTTATTAAGGGATGAATTATCTCTCAATATAAATATCTCTCACTTATTTAAA | 0.37 | 0.318 | –
6 | ACAGACGAAGGAGCCGCAAAGAAGTTATTAAGGGATGAATTATTCCTCAATATAAATATCTCTCACTTATTTAAA | 0.215 | – | –
7 | ACAGACGAAGGAGCCGCAAAGAAGTTATTAAGGGATGAATTTTCCCTCAATATAAATATCTCTCACTTATTTAAA | 0.73 | – | –
8 | ACAGACGAAGGAGCCGCAAAGAAGTTATTAAGGGATGACCAATCCCTCAATATAAATATCTCTCACTTATTTAAA | 0.749 | – | –
9 | ACAGACGAAGGAGCCGCAAAGAAGTTATTAAGGGATGACTAAACCCTCAATATAAATATCTCTCACTTATTTAAA | 0.303 | 0.197 | –
10 | ACAGACGAAGGAGCCGCAAAGAAGTTATTAAGGGATGACTAATACCTCAATATAAATATCTCTCACTTATTTAAA | 0.0872 | – | –
11 | ACAGACGAAGGAGCCGCAAAGAAGTTATTAAGGGATGACTAATCCATCAATATAAATATCTCTCACTTATTTAAA | 0.154 | 0.112 | –
12 | ACAGACGAAGGAGCCGCAAAGAAGTTATTAAGGGATGACTAATCCCACAATATAAATATCTCTCACTTATTTAAA | 0.197 | 0.157 | –
13 | ACAGACGAAGGAGCCGCAAAGAAGTTATTAAGGGATGACTAATCCCTAAATATAAATATCTCTCACTTATTTAAA | 0.359 | – | –
14 | ACAGACGAAGGAGCCGCAAAGAAGTTATTAAGGGATGACTAATCCCTCAAAATAAATATCTCTCACTTATTTAAA | – | 0.192 | –
15 | ACAGACGAAGGAGCCGCAAAGAAGTTATTAAGGGATGACTAATCCCTCAAGATAAATATCTCTCACTTATTTAAA | 0.247 | – | –
16 | ACAGACGAAGGAGCCGCAAAGAAGTTATTAAGGGATGACTAATCCCTCAATATAAATATCTCTCACTTATTTAAA | 0.679 | 0.603 | 0.978
17 | ACAGACGAAGGAGCCGCAAAGAAGTTATTAAGGGATGACTAATCCCTCAATATAATTATCTCTCACTTATTTAAA | 0.282 | – | –
18 | ACAGACGAAGGAGCCGCAAAGAAGTTATTAAGGGATGACTAATCCCTCAATATATATATCTCTCACTTATTTAAA | – | 0.293 | –
19 | ACAGACGAAGGAGCCGCAAAGAAGTTATTAAGGGATGACTAATCCCTCATTATAAATATCTCTCACTTATTTAAA | 0.208 | 0.155 | –
20 | ACAGACGAAGGAGCCGCAAAGAAGTTATTAAGGGATGACTAATCCCTCTATATAAATATCTCTCACTTATTTAAA | 0.337 | – | –
21 | ACAGACGAAGGAGCCGCAAAGAAGTTATTAAGGGATGACTAATCCGTCAATATAAATATCTCTCACTTATTTAAA | 0.213 | – | –

Row | Sequence | cleaved RNA product abundance [1] | cleaved RNA product abundance [2] | cleaved RNA product abundance [3]
22 | ACAGACGAAGGAGCCGCAAAGAAGTTATTAAGGGATGACTAATCCTTCAATATAAATATCTCTCACTTATTTAAA | 0.251 | – | –
23 | ACAGACGAAGGAGCCGCAAAGAAGTTATTAAGGGATGACTAATTCCTCAATATAAATATCTCTCACTTATTTAAA | 0.314 | – | –
24 | ACAGACGAAGGAGCCGCAAAGAAGTTATTAAGGGATGACTACTCCCTCAATATAAATATCTCTCACTTATTTAAA | 0.446 | – | –
25 | ACAGACGAAGGAGCCGCAAAGAAGTTATTAAGGGATGACTATTCCCTCAATATAAATATCTCTCACTTATTTAAA | 0.804 | – | –
26 | ACAGACGAAGGAGCCGCAAAGAAGTTATTAAGGGATGAGAAATCCCTCAATATAAATATCTCTCACTTATTTAAA | 0.604 | – | –
27 | ACAGACGAAGGAGCCGCAAAGAAGTTATTAAGGGATGAGTAAACCCTCAATATAAATATCTCTCACTTATTTAAA | 0.35 | – | –
28 | ACAGACGAAGGAGCCGCAAAGAAGTTATTAAGGGATGAGTAATCACTCAATATAAATATCTCTCACTTATTTAAA | 0.264 | – | –
29 | ACAGACGAAGGAGCCGCAAAGAAGTTATTAAGGGATGAGTAATCCCTCAATATAAATATCTCTCACTTATTTAAA | 0.596 | 0.484 | 0.74
30 | ACAGACGAAGGAGCCGCAAAGAAGTTATTAAGGGATGAGTAATCCCTCATTATAAATATCTCTCACTTATTTAAA | 0.185 | – | –
31 | ACAGACGAAGGAGCCGCAAAGAAGTTATTAAGGGATGAGTAATCCCTCCATATAAATATCTCTCACTTATTTAAA | 0.164 | – | –
32 | ACAGACGAAGGAGCCGCAAAGAAGTTATTAAGGGATGAGTAATCCCTTAATATAAATATCTCTCACTTATTTAAA | 0.601 | – | –
33 | ACAGACGAAGGAGCCGCAAAGAAGTTATTAAGGGATGAGTAATCCTTCAATATAAATATCTCTCACTTATTTAAA | 0.346 | – | –
34 | ACAGACGAAGGAGCCGCAAAGAAGTTATTAAGGGATGAGTAATTCCTCAATATAAATATCTCTCACTTATTTAAA | 0.452 | – | –
35 | ACAGACGAAGGAGCCGCAAAGAAGTTATTAAGGGATGATAAATCCCTCAATATAAATATCTCTCACTTATTTAAA | 0.853 | 0.648 | –
36 | ACAGACGAAGGAGCCGCAAAGAAGTTATTAAGGGATGATAATCCCTCAATATAAATATCTCTCACTTATTTAAAG | 0.861 | – | –
37 | ACAGACGAAGGAGCCGCAAAGAAGTTATTAAGGGATGATGAATCCCTCAATATAAATATCTCTCACTTATTTAAA | 0.766 | – | –
38 | ACAGACGAAGGAGCCGCAAAGAAGTTATTAAGGGATGATTAAACCCTCAATATAAATATCTCTCACTTATTTAAA | 0.362 | – | –
39 | ACAGACGAAGGAGCCGCAAAGAAGTTATTAAGGGATGATTAATACCTCAATATAAATATCTCTCACTTATTTAAA | 0.134 | – | –
40 | ACAGACGAAGGAGCCGCAAAGAAGTTATTAAGGGATGATTAATCACTCAATATAAATATCTCTCACTTATTTAAA | – | 0.152 | –
41 | ACAGACGAAGGAGCCGCAAAGAAGTTATTAAGGGATGATTAATCCATCAATATAAATATCTCTCACTTATTTAAA | – | 0.124 | –
42 | ACAGACGAAGGAGCCGCAAAGAAGTTATTAAGGGATGATTAATCCCACAATATAAATATCTCTCACTTATTTAAA | 0.276 | – | –

Row | Sequence | cleaved RNA product abundance [1] | cleaved RNA product abundance [2] | cleaved RNA product abundance [3]
43 | ACAGACGAAGGAGCCGCAAAGAAGTTATTAAGGGATGATTAATCCCGCAATATAAATATCTCTCACTTATTTAAA | 0.0868 | – | –
44 | ACAGACGAAGGAGCCGCAAAGAAGTTATTAAGGGATGATTAATCCCTAAATATAAATATCTCTCACTTATTTAAA | 0.599 | – | –
45 | ACAGACGAAGGAGCCGCAAAGAAGTTATTAAGGGATGATTAATCCCTCAAAATAAATATCTCTCACTTATTTAAA | 0.282 | 0.294 | –
46 | ACAGACGAAGGAGCCGCAAAGAAGTTATTAAGGGATGATTAATCCCTCAAGATAAATATCTCTCACTTATTTAAA | 0.304 | – | –
47 | ACAGACGAAGGAGCCGCAAAGAAGTTATTAAGGGATGATTAATCCCTCAATAGAAATATCTCTCACTTATTTAAA | 0.0935 | – | –
48 | ACAGACGAAGGAGCCGCAAAGAAGTTATTAAGGGATGATTAATCCCTCAATATAAACATCTCTCACTTATTTAAA | 0.559 | – | –
49 | ACAGACGAAGGAGCCGCAAAGAAGTTATTAAGGGATGATTAATCCCTCAATATAAATATCTCTCACTTATTTAAA | 0.844 | 0.75 | 0.94
50 | ACAGACGAAGGAGCCGCAAAGAAGTTATTAAGGGATGATTAATCCCTCAATATCAATATCTCTCACTTATTTAAA | 0.0525 | – | –
51 | ACAGACGAAGGAGCCGCAAAGAAGTTATTAAGGGATGATTAATCCCTCAATATTAATATCTCTCACTTATTTAAA | – | 0.164 | –
52 | ACAGACGAAGGAGCCGCAAAGAAGTTATTAAGGGATGATTAATCCCTCAATTTAAATATCTCTCACTTATTTAAA | 0.0965 | – | –
53 | ACAGACGAAGGAGCCGCAAAGAAGTTATTAAGGGATGATTAATCCCTGAATATAAATATCTCTCACTTATTTAAA | 0.458 | – | –
54 | ACAGACGAAGGAGCCGCAAAGAAGTTATTAAGGGATGATTAATCCCTTAATATAAATATCTCTCACTTATTTAAA | 0.554 | – | –
55 | ACAGACGAAGGAGCCGCAAAGAAGTTATTAAGGGATGATTAATCCTTCAATATAAATATCTCTCACTTATTTAAA | 0.469 | 0.306 | –
56 | ACAGACGAAGGAGCCGCAAAGAAGTTATTAAGGGATGATTAATGCCTCAATATAAATATCTCTCACTTATTTAAA | – | 0.117 | –
57 | ACAGACGAAGGAGCCGCAAAGAAGTTATTAAGGGATGATTAATTCCTCAATATAAATATCTCTCACTTATTTAAA | – | 0.271 | –
58 | ACAGACGAAGGAGCCGCAAAGAAGTTATTAAGGGATGATTTATCCCTCAATATAAATATCTCTCACTTATTTAAA | 0.771 | – | –
59 | ACAGACGAAGGAGCCGCAAAGAAGTTATTAAGGGATGCACAATCCCTCAATATAAATATCTCTCACTTATTTAAA | 0.547 | – | –
60 | ACAGACGAAGGAGCCGCAAAGAAGTTATTAAGGGATGCATAAGCCCTCAATATAAATATCTCTCACTTATTTAAA | 0.732 | – | –
61 | ACAGACGAAGGAGCCGCAAAGAAGTTATTAAGGGATGCATAATACCTCAATATAAATATCTCTCACTTATTTAAA | 0.141 | 0.129 | –
